Experimental data reported in PMC5925748 (Molecular cancer therapeutics, 2017).

Target: sEGFR (soluble extracellular region of EGFR, wild type) (Homo sapiens, UniProt P00533)
Experiment: SPR

Kd: 6.1 nM
B1: necitumumab Fab (Fab11F8) (Fab, V domains shown)
VH: QVQLQESGPGLVKPSQTLSLTCTVSGGSISSGDYYWSWIRQPPGKGLEWIGYIYYSGSTDYNPSLKSRVTMSVDTSKNQFSLKVNSVTAADTAVYYCARVSIFGVGTFDYWGQGTLVTVSS
VL: EIVMTQSPATLSLSPGERATLSCRASQSVSSYLAWYQQKPGQAPRLLIYDASNRATGIPARFSGSGSGTDFTLTISSLEPEDFAVYYCHQYGSTPLTFGGGTKAEIK
